In PMC6957217:

Biological target: E. coli bacteria
Assay: binding to whole E. coli cells in presence of purified E. coli B LPS
Conditions: read off a plot

**Q.** With “Phage T4 LTF needle (gp37; amino acids 799–1026), wild type (from UniProt P03744) G938A” as the substance, how does the response (LPS 0.32 ng, parent: est. 32) read?
**A.** 90 % Binding

**Q.** And the response (LPS 1.6 ng, parent: est. 47)?
**A.** 85 % Binding

**Q.** And the response (LPS 8 ng, parent: est. 62)?
**A.** 92 % Binding

**Q.** What about the response (LPS 40 ng, parent: est. 87) of the same substance?
**A.** 92 % Binding

**Q.** And the response (LPS 200 ng, parent: est. 130)?
**A.** 100 % Binding

**Q.** What about the response (LPS 1000 ng, parent: est. 190) of the same substance?
**A.** 110 % Binding

**Q.** And the response (LPS 5000 ng, parent: est. 230)?
**A.** 120 % Binding

**Q.** What does the source list for “Phage T4 LTF needle (gp37; amino acids 799–1026), wild type (from UniProt P03744) N937A”?
**A.** response (LPS 0.32 ng, parent: est. 32): 90 % Binding; response (LPS 1.6 ng, parent: est. 47): 92 % Binding; response (LPS 8 ng, parent: est. 62): 94 % Binding; response (LPS 40 ng, parent: est. 87): 98 % Binding; response (LPS 200 ng, parent: est. 130): 110 % Binding; response (LPS 1000 ng, parent: est. 190): 140 % Binding; response (LPS 5000 ng, parent: est. 230): 150 % Binding
